Experimental data published in publication PMC11134608, “UBR5 forms ligand-dependent complexes on chromatin to regulate nuclear hormone receptor stability” (Molecular cell, 2023).
Primed or numbered codes have the meaning given here. No end group written: not given here. fluorescein″ = fluorescein (FAM) label on the N-terminus (fluorescent label)

B1: VDR aa118-427 (recombinant) (domain or fragment, UniProt P11473 118-427, looked up)
chain: DSLRPKLSEEQQRIIAILLDAHHKTYDPTYSDFCQFRPPVRVNDGGGSHPSRPNSRHTPSFSGDSSSSCSDHCITSSDMMDSSSFSNLDLSEEDSDDPSVTLELSQLSMLPHLADLVSYSIQKVIGFAKMIPGFRDLTSEDQIVLLKSSAIEVIMLRSNESFTMDDMSWTCGNQDYKYRVSDVTKAGHSLELIEPLIKFQVGLKKLNLHEEEHVLLMAICIVSPDRPGVQDAALIEAIQDRLSNTLQTYIRCRHPPPGSHLLYAKMIQKLADLRSLNEEHSKQYRCLSFQPECSMKLTPLVLEVFGNEIS
notes: also called vitamin D receptor; source: E. coli BL21-CodonPlus(DE3)-RIL, purified (HisTrap, SEC)
B2: His-tagged ER ligand-binding domain (aa301-552) (domain or fragment, UniProt P03372 301-552, looked up)
chain: SKKNSLALSLTADQMVSALLDAEPPILYSEYDPTRPFSEASMMGLLTNLADRELVHMINWAKRVPGFVDLTLHDQVHLLECAWLEILMIGLVWRSMEHPGKLLFAPNLLLDRNQGKCVEGMVEIFDMLLATSSRFRMMNLQGEEFVCLKSIILLNSGVYTFLSSTLKSLEEKDHIHRVLDKITDTLIHLMAKAGLTLQQQHQRLAQLLLILSHIRHMSNKGMEHLYSMKCKNVVPLYDLLLEMLDAHRLHAP
notes: also called estrogen receptor; source: E. coli BL21-CodonPlus(DE3)-RIL, purified (HisTrap, SEC); not shown: His6, N-terminal, kept
B3: Fluorescein-labelled NCOA1 peptide residues 687–698 (Flc-ARHKILHRLLQEGS) (peptide)
peptide: {fluorescein″}-ARHKILHRLLQEGS
notes: NCOA1 LxxLL peptide, printed as residues 687-698; also called Fluorescein NCOA1 peptide aa687-698; source: synthetic peptide; bought: Peptides & Elephants
B4: His-tagged RARA ligand-binding domain (aa175-421) (domain or fragment, UniProt P10276 175-421, looked up)
chain: SESYTLTPEVGELIEKVRKAHQETFPALCQLGKYTTNNSSEQRVSLDIDLWDKFSELSTKCIIKTVEFAKQLPGFTTLTIADQITLLKAACLDILILRICTRYTPEQDTMTFSDGLTLNRTQMHNAGFGPLTDLVFAFANQLLPLEMDDAETGLLSAICLICGDRQDLEQPDRVDMLQEPLLEALKVYVRKRRPSRPHMFPKMLMKITDLRSISAKGAERVITLKMEIPGSMPPLIQEMLENSEGLD
notes: no cleavage of the His6-Smt3 fusion is described, and the protein is called His-tagged in the pull-downs, so Smt3 was probably still on; also called His-RARA; RARA LBD; source: E. coli BL21-CodonPlus(DE3)-RIL, purified (HisTrap, SEC); not shown: His6, N-terminal, kept
B5: RARA/RXRA heterodimer (ligand-binding domains) (complex)
chain 1: SESYTLTPEVGELIEKVRKAHQETFPALCQLGKYTTNNSSEQRVSLDIDLWDKFSELSTKCIIKTVEFAKQLPGFTTLTIADQITLLKAACLDILILRICTRYTPEQDTMTFSDGLTLNRTQMHNAGFGPLTDLVFAFANQLLPLEMDDAETGLLSAICLICGDRQDLEQPDRVDMLQEPLLEALKVYVRKRRPSRPHMFPKMLMKITDLRSISAKGAERVITLKMEIPGSMPPLIQEMLENSEGLD
chain 2: SSANEDMPVERILEAELAVEPKTETYVEANMGLNPSSPNDPVTNICQAADKQLFTLVEWAKRIPHFSELPLDDQVILLRAGWNELLIASFSHRSIAVKDGILLATGLHVHRNSAHSAGVGAIFDRVLTELVSKMRDMQMDKTELGCLRAIVLFNPDSKGLSNPAEVEALREKVYASLEAYCKHKYPEQPGRFAKLLLRLPALRSIGLKCLEHLFFFKLIGDTPIDTFLMEMLEAPHQMT
notes: LBD constructs are stated for the negative stain EM; also called RARA/RXRA^LBD; RARA/RXRA LBD heterodimer; source: E. coli BL21-CodonPlus(DE3)-RIL, purified (HisTrap, SEC); not shown: His6, N-terminal, kept

Legend:
[1] = target: T1, Full-length human FLAG-UBR5 (human, UniProt O95071 1-2799); test: pull-down; FLAG-UBR5 (15 pmol) immobilised on FLAG M2 beads, 150 pmol nuclear receptor protein added with 50 μM agonist ligand (ATRA, 9-cis RA, both, estradiol or calcitriol); 25 mM HEPES pH 7.4, 125 mM NaCl, 0.05% TWEEN-20; 4°C; eluted with 3xFLAG peptide, western blot; settings: both partners purified
T1 construct: UBR5 (ubiquitin protein ligase E3 component n-recognin 5), human, full length; Tetramer by SEC-MALS and cryo-EM; also called ubiquitin protein ligase E3 component n-recognin 5; UBR5 tetramer, WT; source: HEK293F (Expi293 system), transient expression, purified (FLAG M2, Mono Q, Superose 6); not shown: FLAG, N-terminal, kept
T1 sequence (O95071 whole entry): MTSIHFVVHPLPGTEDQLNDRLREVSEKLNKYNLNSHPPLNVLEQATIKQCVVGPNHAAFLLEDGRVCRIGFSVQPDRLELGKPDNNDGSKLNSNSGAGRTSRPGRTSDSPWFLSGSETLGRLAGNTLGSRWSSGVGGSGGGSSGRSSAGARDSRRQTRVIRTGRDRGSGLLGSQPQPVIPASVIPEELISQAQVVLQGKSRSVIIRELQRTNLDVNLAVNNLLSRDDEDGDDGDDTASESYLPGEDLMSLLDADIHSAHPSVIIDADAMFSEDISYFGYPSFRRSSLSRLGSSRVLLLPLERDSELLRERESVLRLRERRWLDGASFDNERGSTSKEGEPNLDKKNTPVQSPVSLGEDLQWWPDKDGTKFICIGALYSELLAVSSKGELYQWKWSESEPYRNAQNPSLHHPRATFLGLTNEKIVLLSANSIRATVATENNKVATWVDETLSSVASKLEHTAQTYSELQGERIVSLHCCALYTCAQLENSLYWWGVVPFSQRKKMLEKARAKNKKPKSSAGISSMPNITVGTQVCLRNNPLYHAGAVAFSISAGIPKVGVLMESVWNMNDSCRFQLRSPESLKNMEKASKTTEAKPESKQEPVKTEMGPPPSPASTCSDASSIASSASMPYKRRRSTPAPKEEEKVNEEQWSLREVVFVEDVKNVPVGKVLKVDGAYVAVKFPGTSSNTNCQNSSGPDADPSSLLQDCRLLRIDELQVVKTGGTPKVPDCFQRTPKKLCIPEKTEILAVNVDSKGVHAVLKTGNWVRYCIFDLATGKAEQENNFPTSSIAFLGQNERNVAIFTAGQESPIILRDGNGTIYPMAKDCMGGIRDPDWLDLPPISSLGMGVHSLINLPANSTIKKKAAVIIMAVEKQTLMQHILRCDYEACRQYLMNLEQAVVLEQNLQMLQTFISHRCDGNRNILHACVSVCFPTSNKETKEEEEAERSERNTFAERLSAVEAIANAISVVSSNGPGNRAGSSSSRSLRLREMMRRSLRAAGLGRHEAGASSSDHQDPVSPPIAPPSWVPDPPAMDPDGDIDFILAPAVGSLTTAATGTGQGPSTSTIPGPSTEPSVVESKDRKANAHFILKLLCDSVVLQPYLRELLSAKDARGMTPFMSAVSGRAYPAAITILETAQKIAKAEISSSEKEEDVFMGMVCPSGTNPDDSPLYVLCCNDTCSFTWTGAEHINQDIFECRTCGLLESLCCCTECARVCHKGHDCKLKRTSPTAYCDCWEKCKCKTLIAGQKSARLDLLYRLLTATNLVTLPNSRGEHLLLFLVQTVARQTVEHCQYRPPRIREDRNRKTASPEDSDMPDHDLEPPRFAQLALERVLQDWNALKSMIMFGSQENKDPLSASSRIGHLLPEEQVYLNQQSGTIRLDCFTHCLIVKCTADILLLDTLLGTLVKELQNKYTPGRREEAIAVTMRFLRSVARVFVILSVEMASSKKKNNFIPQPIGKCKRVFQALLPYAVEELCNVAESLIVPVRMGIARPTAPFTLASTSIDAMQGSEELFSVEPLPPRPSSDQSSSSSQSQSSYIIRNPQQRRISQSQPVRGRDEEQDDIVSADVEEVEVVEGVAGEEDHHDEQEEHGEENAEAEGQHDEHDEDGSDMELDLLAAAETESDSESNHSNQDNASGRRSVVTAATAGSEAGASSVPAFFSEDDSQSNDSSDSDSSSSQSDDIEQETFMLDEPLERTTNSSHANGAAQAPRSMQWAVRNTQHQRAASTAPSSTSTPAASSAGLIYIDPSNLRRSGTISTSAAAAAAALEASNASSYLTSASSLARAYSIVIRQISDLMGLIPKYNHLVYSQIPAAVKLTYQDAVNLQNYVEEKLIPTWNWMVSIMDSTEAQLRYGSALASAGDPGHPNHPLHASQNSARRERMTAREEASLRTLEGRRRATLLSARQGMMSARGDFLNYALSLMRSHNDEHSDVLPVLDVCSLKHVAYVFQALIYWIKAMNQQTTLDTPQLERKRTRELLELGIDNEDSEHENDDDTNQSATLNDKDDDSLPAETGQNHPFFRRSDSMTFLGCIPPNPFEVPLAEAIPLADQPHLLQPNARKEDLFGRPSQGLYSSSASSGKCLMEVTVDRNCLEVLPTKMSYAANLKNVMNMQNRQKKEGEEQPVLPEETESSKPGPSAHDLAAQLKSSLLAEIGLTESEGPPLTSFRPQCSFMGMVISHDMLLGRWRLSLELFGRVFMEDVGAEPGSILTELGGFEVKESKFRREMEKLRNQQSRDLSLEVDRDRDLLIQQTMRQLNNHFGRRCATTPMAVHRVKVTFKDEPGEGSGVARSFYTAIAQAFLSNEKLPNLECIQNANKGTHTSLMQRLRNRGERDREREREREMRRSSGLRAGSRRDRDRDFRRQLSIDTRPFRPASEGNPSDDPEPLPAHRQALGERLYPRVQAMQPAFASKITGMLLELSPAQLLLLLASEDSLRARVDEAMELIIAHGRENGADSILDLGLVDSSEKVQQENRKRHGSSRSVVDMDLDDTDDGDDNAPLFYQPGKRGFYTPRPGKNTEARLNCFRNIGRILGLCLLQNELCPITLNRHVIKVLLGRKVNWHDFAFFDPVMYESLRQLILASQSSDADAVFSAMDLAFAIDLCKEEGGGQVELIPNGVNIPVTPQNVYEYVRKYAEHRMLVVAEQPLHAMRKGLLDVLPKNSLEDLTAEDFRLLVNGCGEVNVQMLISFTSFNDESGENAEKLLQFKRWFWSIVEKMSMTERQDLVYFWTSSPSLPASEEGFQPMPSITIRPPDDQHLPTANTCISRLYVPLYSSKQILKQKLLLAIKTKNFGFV

[2] = target: B5; test: fluorescence polarisation; competitive reverse titration: tracer Flc-NCOA1 peptide 10 nM and RARA/RXRA 0.5 μM, unlabeled competitor peptides 0–85 μM; 20 mM HEPES pH 7.4, 110 mM NaCl, 500 μM TCEP, 1% glycerol, 0.1% pluronic acid, with or without 100 μM all-trans-retinoic acid; room temperature; settings: both partners purified

| Binder | binding result [1] | binding result [2] |
| --- | --- | --- |
| B1 | binds | – |
| B2 | binds | – |
| B3 | – | binds |
| B4 | binds | – |
| B5 | binds | – |
